Measured values as given in PMC9606859, “Chemical Synthesis of Trans 8-Methyl-6-Nonenoyl-CoA and Functional Expression Unravel Capsaicin Synthase Activity Encoded by the Pun1 Locus” (Molecules, 2022).

Substrate: CC(C)/C=C/CCCCC(=O)SCCNC(=O)CCNC(=O)[C@H](O)C(C)(C)COP(=O)(O)OP(=O)(O)OC[C@H]1O[C@@H](n2cnc3c(N)ncnc32)[C@H](O)[C@@H]1OP(=O)(O)O
Assay: HPLC/MS capsaicin formation
Type: biochemical, Capsicum chinense
Conditions: co-substrate vanilloylamine (saturating per Figure S3), 50 mM TRIS/HCl pH 7.5, 150 mM NaCl, 10% glycerol, 1 mM TCEP, partly purified enzyme, single measurement, three technical replicates

B1: recombinant capsaicin synthase (AT3, Pun1) (Capsicum chinense) (protein)
chain: MAFALPSSLVSVCDKSFIKPSSLTPSTLRFHKLSFIDQSLSNMYIPCAFFYPKVQQRLEDSKNSDELSHIAHLLQTSLSQTLVSYYPYAGKLKDNATVDCNDMGAEFLSVRIKCSMSEILDHPHASLAESIVLPKDLPWANNCEGGNLLVVQVSKFDCGGIAISVCFSHKIGDGCSLLNFLNDWSSVTRDHTTTTLVPSPRFVGDSVFSTKTYGSLTTPQILSDLNECVQKRLIFPTDKLDALRAKVAEESGVKNPTRAEVVSALLFKCATKASSSMLPSKLVHFLNIRTMIKPRLPRNTIGNLSSIFSIEATNMQDMELPTLVRNLRKEVEVAYKKDQVEQNELILEVVESMREGKLPFENMDGYENVYTCSNLCKYPYYTVDFGWGRPERVCLGNGPSKNAFFLKDYKAGQGVEARVMLHKQQMSEFERNEELLEFIA
notes: full length, codon-optimized 1332 bp NdeI/XhoI fragment in pET-16b, His-tag (2 kDa) kept; E. coli SoluBL21; partly purified (Ni-NTA, SEC); monomer
Km: 480 ± 240 µM
